Where no end group is shown, it is not given here.
Tests used:
[1] = molecular target: T1, Anti-CD28 Fab (SEQ ID NOs: 696, 697); assay: phage ELISA; biotinylated anti-CD28 Fab on neutravidin plate, clonal phage supernatant, anti-M13 HRP
T1 construct: Biotinylated and captured on neutravidin coated plates in the phage ELISA
T1 sequence (VH, as listed by the source, chain 1 of 2): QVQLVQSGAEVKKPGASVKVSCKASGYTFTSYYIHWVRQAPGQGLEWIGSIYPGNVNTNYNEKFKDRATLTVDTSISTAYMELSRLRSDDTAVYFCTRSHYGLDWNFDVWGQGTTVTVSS
T1 sequence (VL, as listed by the source, chain 2 of 2): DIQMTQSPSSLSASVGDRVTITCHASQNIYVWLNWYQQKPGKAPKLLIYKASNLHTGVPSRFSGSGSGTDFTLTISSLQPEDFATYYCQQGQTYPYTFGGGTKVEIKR

[2] = molecular target: T1, Anti-CD28 Fab (SEQ ID NOs: 696, 697); assay: phage ELISA on captured anti-CD28 Fab; competitor CD28 antigen pre-incubated in the wells;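 note: clonal phage supernatants added to wells preloaded with CD28 antigen in blocking buffer, control wells buffer only, bound phage read via HRP-linked anti-M13 antibody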
Method: (§1) After panning, phage infected bacteria were plated out and colonies picked into 96 well blocks. Clonal phage was then amplified and separated from bacterial cells via centrifugation.
(§2) Clonal phage were harvested as crude supematants and screened via standard ELISAs. […] Prior to the addition of clonal phage, wells were incubated with blocking buffer and CD28 antigen or blocking buffer alone. Without washing or aspirating, clonal phage supematants were then added to the wells and incubated for a short time. Wells were then washed followed by detection of bound phage using a horse radish conjugated anti-M13 antibody. Clonal phage of interest were then sent for sequence analysis.

[3] = molecular target: T2, Anti-CD28 Fab (SEQ ID NOs: 696, 697); assay: phage binding ELISA, Fab on plate pre-incubated with CD28 antigen as competitor
T2 construct: Biotinylated and captured on neutravidin coated plates in the phage ELISA
T2 sequence (VH, as listed by the source, chain 1 of 2): as the sequence (VH, as listed by the source, chain 1 of 2) above
T2 sequence (VL, as listed by the source, chain 2 of 2): as the sequence (VL, as listed by the source, chain 2 of 2) above
Method: as §1, §2

[4] = molecular target: T2, Anti-CD28 Fab (SEQ ID NOs: 696, 697); assay: phage binding ELISA, biotinylated Fab on neutravidin plate, anti-M13 HRP detection;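 note: crude clonal phage supernatants added to Fab-coated wells pretreated with CD28 antigen or with blocking buffer only, bound phage measured after washing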
Method: as §1, §2

[5] = molecular target: T3, Anti-CD28 Fab (SEQ ID NOs: 696, 697); assay: phage ELISA on anti-CD28 Fab plates; competitor CD28 antigen pre-incubated in the wells
T3 construct: Biotinylated and captured on neutravidin coated plates in the phage ELISA
T3 sequence (VH, as listed by the source, chain 1 of 2): as the sequence (VH, as listed by the source, chain 1 of 2) above
T3 sequence (VL, as listed by the source, chain 2 of 2): as the sequence (VL, as listed by the source, chain 2 of 2) above
Method: as §1, §2

[6] = molecular target: T3, Anti-CD28 Fab (SEQ ID NOs: 696, 697); assay: phage ELISA; biotinylated anti-CD28 Fab on neutravidin plates, bound phage detected with anti-M13 HRP
Method: as §1, §2

[7] = molecular target: Anti-CD28 Fab (SEQ ID NOs: 696, 697); assay: phage binding ELISA on captured anti-CD28 Fab pre-incubated with CD28 antigen as competitor
Target sequence in this assay (VH, as listed by the source, chain 1 of 2): as the sequence (VH, as listed by the source, chain 1 of 2) above
Target sequence in this assay (VL, as listed by the source, chain 2 of 2): as the sequence (VL, as listed by the source, chain 2 of 2) above
Method: as §1, §2

[8] = molecular target: Anti-CD28 Fab (SEQ ID NOs: 696, 697); assay: phage binding ELISA; biotinylated anti-CD28 Fab captured on neutravidin plate, clonal phage supernatant, anti-M13 HRP detection
Target sequence in this assay (VH, as listed by the source, chain 1 of 2): as the sequence (VH, as listed by the source, chain 1 of 2) above
Target sequence in this assay (VL, as listed by the source, chain 2 of 2): as the sequence (VL, as listed by the source, chain 2 of 2) above
Method: as §1, §2

Binder | Phage binding ELISA, Anti-CD28 Fab signal [1] | Phage binding ELISA, Anti-CD28 Fab signal in the presence of CD28 [2] | Anti-CD28 Fab signal in the presence of CD28 [3] | Anti-CD28 Fab (SEQ ID NOs: 696, 697) signal [4] | Phage binding ELISA, Anti-CD28 Fab signal in the presence of CD28 [5] | Phage binding ELISA, Anti-CD28 Fab signal [6] | other results
YCMGHAPEYMAKCL (tested as crude clonal phage supernatant) [Phage-520] | 2.38 | 0.09 |  |  |  |  | 
YCDGHLPMYMMKCL (Clonal phage of the Peptide-87 library, tested as crude supernatant; not shown: pIII of the bacteriophage to which the peptide is fused) [Phage-561] |  |  | 0.14 | 2.28 |  |  | 
YCDGHLPIYMSQCL (tested as crude clonal phage supernatant) [Phage-525] | 2.36 | 0.12 |  |  |  |  | 
YCEGHSAQYMSKCL (Clonal phage of the Peptide-87 library, tested as crude supernatant; not shown: pIII of the bacteriophage to which the peptide is fused) [Phage-557] |  |  | 0.07 | 2.29 |  |  | 
YCDGHSQEYMMKCL (Clonal phage of the Peptide-87 library, tested as crude supernatant; not shown: pIII of the bacteriophage to which the peptide is fused) [Phage-563] |  |  | 0.06 | 2.28 |  |  | 
YCDGHLDEYMAKCL [Phage-546] |  |  |  |  | 0.08 | 2.31 | 
YCDGHLPEYMSKCM (tested as crude clonal phage supernatant) [Phage-518] | 2.38 | 0.14 |  |  |  |  | 
YCEGHAAEYMEKCL (Clonal phage of the Peptide-87 library, tested as crude supernatant; not shown: pIII of the bacteriophage to which the peptide is fused) [Phage-556] |  |  | 0.11 | 2.3 |  |  | 
YCQGHAPEYMAKCL (Clonal phage of the Peptide-87 library, tested as crude supernatant; not shown: pIII of the bacteriophage to which the peptide is fused) [Phage-562] |  |  | 0.1 | 2.28 |  |  | 
YCEGHSSEYMLKCL (Clonal phage of the Peptide-87 library, tested as crude supernatant; not shown: pIII of the bacteriophage to which the peptide is fused) [Phage-555] |  |  | 0.07 | 2.3 |  |  | 
YCAGHMPEYMAKCL (tested as crude clonal phage supernatant) [Phage-517] | 2.38 | 0.11 |  |  |  |  | 
YCEGHTAEYMQKCL (tested as crude clonal phage supernatant) [Phage-519] | 2.38 | 0.08 |  |  |  |  | 
YCDGHSPQYIEKCL [Phage-544] |  |  |  |  | 0.07 | 2.31 | 
YCDGHSPEYILKCL [Phage-545] |  |  |  |  | 0.09 | 2.31 | 
YCAGHLPQYMSKCL (tested as crude clonal phage supernatant) [Phage-524] | 2.37 | 0.11 |  |  |  |  | 
YCEGHAAEYMAKCL (tested as crude clonal phage supernatant) [Phage-515] | 2.38 | 0.08 |  |  |  |  | 
YCEGHSPEYMSKCL [Phage-541] |  |  |  |  | 0.07 | 2.31 | 
YCDGHLPQYMWKCL (Clonal phage of the Peptide-87 library, tested as crude supernatant; not shown: pIII of the bacteriophage to which the peptide is fused) [Phage-559] |  |  | 0.12 | 2.29 |  |  | 
YCDGHTLEYMWKCL [Phage-547] |  |  |  |  | 0.13 | 2.31 | 
YCDGHAPEYMMKCL (tested as crude clonal phage supernatant) [Phage-513] | 2.39 | 0.09 |  |  |  |  | 
YCDGHLPEYLAKCL (tested as crude clonal phage supernatant) [Phage-516] | 2.38 | 0.11 |  |  |  |  | 

Binder | Phage binding ELISA, Anti-CD28 Fab signal [1] | Phage binding ELISA, Anti-CD28 Fab signal in the presence of CD28 [2] | Anti-CD28 Fab signal in the presence of CD28 [3] | Anti-CD28 Fab (SEQ ID NOs: 696, 697) signal [4] | Phage binding ELISA, Anti-CD28 Fab signal in the presence of CD28 [5] | Phage binding ELISA, Anti-CD28 Fab signal [6] | other results
YCDGHLPEYMAKCL (tested as crude clonal phage supernatant) [Phage-521] | 2.37 | 0.13 |  |  |  |  | 
YCDGHAPQYMRKCL (Clonal phage of the Peptide-87 library, tested as crude supernatant; not shown: pIII of the bacteriophage to which the peptide is fused) [Phage-553] |  |  | 0.07 | 2.3 |  |  | 
YCEGHLPEYMAKCL (peptide, not shown: large carriers, cysteine pairing not given here; also: displayed on phage as fusion to pIII, linker, pIII sequence and order not given here, Clonal phage supernatant of the Peptide-87 optimisation library) [Phage-509] |  |  |  |  |  |  | Anti-CD28 Fab signal in the presence of CD28 (phage binding ELISA) [7]: 0.14; Anti-CD28 Fab signal (phage binding ELISA) [8]: 2.41
YCEGHLPEYMFKCL (peptide, not shown: large carriers, cysteine pairing not given here; also: displayed on phage as fusion to pIII, linker, pIII sequence and order not given here, Clonal phage supernatant of the Peptide-87 optimisation library) [Phage-510] |  |  |  |  |  |  | Anti-CD28 Fab signal in the presence of CD28 (phage binding ELISA) [7]: 0.12; Anti-CD28 Fab signal (phage binding ELISA) [8]: 2.4
YCDGHLPQYMAQCL (peptide, not shown: large carriers, cysteine pairing not given here; also: displayed on phage as fusion to pIII, linker, pIII sequence and order not given here, Clonal phage supernatant of the Peptide-87 optimisation library) [Phage-511] |  |  |  |  |  |  | Anti-CD28 Fab signal in the presence of CD28 (phage binding ELISA) [7]: 0.2; Anti-CD28 Fab signal (phage binding ELISA) [8]: 2.4
YCDGHEPQYMLKCL [Phage-540] |  |  |  |  | 0.12 | 2.32 | 
YCEGHLPLYMWKCL [Phage-548] |  |  |  |  | 0.07 | 2.3 | 
YCDGHVPEYMAKCL (Clonal phage of the Peptide-87 library, tested as crude supernatant; not shown: pIII of the bacteriophage to which the peptide is fused) [Phage-560] |  |  | 0.07 | 2.29 |  |  | 
YCSGHLPQYMQKCL (Clonal phage of the Peptide-87 library, tested as crude supernatant; not shown: pIII of the bacteriophage to which the peptide is fused) [Phage-564] |  |  | 0.08 | 2.28 |  |  | 
YCAGHLPEYMPHCI [Phage-543] |  |  |  |  | 0.09 | 2.31 | 
YCAGHSPEHMWKCL [Phage-550] |  |  |  |  | 0.06 | 2.3 | 
YCDGHAKEYMWKCL (Clonal phage of the Peptide-87 library, tested as crude supernatant; not shown: pIII of the bacteriophage to which the peptide is fused) [Phage-554] |  |  | 0.07 | 2.3 |  |  | 
YCDGHSREYIAKCL (Clonal phage of the Peptide-87 library, tested as crude supernatant; not shown: pIII of the bacteriophage to which the peptide is fused) [Phage-558] |  |  | 0.08 | 2.29 |  |  | 
YCDGHSWEYIGKCL (tested as crude clonal phage supernatant) [Phage-522] | 2.37 | 0.07 |  |  |  |  | 
YCEGHTMEYMWKCL [Phage-542] |  |  |  |  | 0.07 | 2.31 | 
YCDGHLPEYQEKCL (tested as crude clonal phage supernatant) [Phage-523] | 2.37 | 0.1 |  |  |  |  | 
YCEGHSEEYISKCL [Phage-551] |  |  |  |  | 0.08 | 2.3 | 
YCDGHLPIYMAKCL [Phage-552] |  |  |  |  | 0.14 | 2.3 | 
YCEGHLPEYMWKCL (tested as crude clonal phage supernatant) [Phage-514] | 2.39 | 0.08 |  |  |  |  | 
YCDGHAPEYMAKCL [Phage-549] |  |  |  |  | 0.09 | 2.3 | 
YCDGHSSEYMAKCL (Clonal phage of the Peptide-87 library, tested as crude supernatant; not shown: pIII of the bacteriophage to which the peptide is fused) [Phage-565] |  |  | 0.09 | 2.28 |  |  | 

— US20260242478A1 (published 2026)
